Laboratory results published in patent US20180263259A1.

Biological target: ground chicken feathers (keratin)

- Soluble dry matter yield (%): 48.3%
Substance: FoodPro® PXT (enzyme)
